The subject of test [1] is RAW 264.7 cells. Nature of the test: qPCR in RAW 264.7 cells co-cultured with 344SQR cells (transwell) with follistatin or K02288. Format: cell-based, murine. To be noted: 344SQR co-culture plus follistatin versus 344SQR co-culture only, 24 or 48 hours (FIG. 3I). From the text:
(§1) Quantitative polymerase chain reaction (qPCR). Total RNA was isolated from cells and tumors with Triazol (Life Technologies) according to the manufacturer's protocol. For studies of BMP7, p38α, IL-1α, IL-1β, TNF-α, RANTES, IL-2, and IFN-γ expression, mRNA was retrotranscribed with the iScript™ gDNA Clear cDNA Synthesis Kit (BioRad) and analyzed by qPCR using SYBR Green (Life Technologies) with specific primers according to the manufacturer's protocol. The comparative Ct method was used to calculate the relative abundance of mRNAs compared with ACTB (beta-actin) expression for cancer cells or CD45 expression for immune cells.
Co-culture experiments and treatments. Viable cells were counted with a hemocytometer (0.4% Trypan blue solution) and diluted to 40,000 cells per well in 24-wells plates. Cells from 344SQP, 344SQR, 344SQ ctrl, or 344SQ-shBMP7 tumors were seeded at the top inserts (24-mm Transwell with 0.4-μm pore polycarbonate membrane insert, Sigma-Aldrich), and RAW 264.7 or CD4^+ T cells were seeded at the bottom of the transwell system. […] RNA was then isolated from RAW 264.7 or CD4^+ T cells and analyzed for p38α, IL-1α, IL-1β, TNF-α, RANTES, IL-2 and IFN-γ expression with qPCR. […]
In general terms: In qPCR the cycle at which signal appears reflects the starting amount.

Test [2] relates to RAW 264.7 cells. Nature of the test: qPCR of p38α, IL-1α, IL-1β, TNF-α, RANTES in RAW 264.7 cells treated with BMP7 or BMP7 plus follistatin. To be noted: BMP7 plus follistatin versus BMP7 only, 24 or 48 hours (FIG. 3H). Format: cell-based, murine.
Excerpt: as §1
Co-culture experiments and treatments. Viable cells were counted with a hemocytometer (0.4% Trypan blue solution) and diluted to 40,000 cells per well in 24-wells plates. Cells from 344SQP, 344SQR, 344SQ ctrl, or 344SQ-shBMP7 tumors were seeded at the top inserts (24-mm Transwell with 0.4-μm pore polycarbonate membrane insert, Sigma-Aldrich), and RAW 264.7 or CD4^+ T cells were seeded at the bottom of the transwell system. […] RNA was then isolated from RAW 264.7 or CD4^+ T cells and analyzed for p38α, IL-1α, IL-1β, TNF-α, RANTES, IL-2 and IFN-γ expression with qPCR.

The subject of another test is CD4^+ T cells. Description: Western blotting of p38a and SMAD1/5/9 phosphorylation in CD4+ T cells treated with BMP7 or BMP7 plus follistatin. Format: cell-based, mouse. The settings on record: BMP7 plus follistatin versus BMP7 alone, 1 hour (FIG. 4A). The protocol: Protein extraction and Western blot analysis. Total protein was extracted by using NP40 lysis buffer (0.5% NP40, 250 mmol/1 NaCl, 50 mmol/1 HEPES, 5 mmol/1 ethylenediaminetetraacetic acid, and 0.5 mmol/1 egtazic acid) supplemented with protease inhibitors cocktails (Sigma-Aldrich). Lysates were centrifuged at 10,000×g for 10 minutes, and the supernatant was collected for experiments. Protein lysates (40 μg) were resolved on denaturing gels with 4-20% sodium dodecyl sulfate-polyacrylamide and transferred to nitrocellulose membranes (Bio-Rad Laboratories, Hercules, Calif.). Membranes were probed with primary antibodies directed against BMP7 (Abcam, Catalog #ab56023), Phospho-Smad1 (Ser463/465)/Smad5 (Ser463/465)/Smad9 (Ser465/467) (Cell Signaling Technologies, Catalog #13820), p38 MAPK (Cell Signaling Technologies, Catalog #8690), Vinculin (Cell Signaling Technologies, Catalog #13901), β-Actin (Cell Signaling Technologies, Catalog #3700), and a secondary antibody conjugated with horseradish peroxidase (Amersham GE Healthcare). […]
Co-culture experiments and treatments. Viable cells were counted with a hemocytometer (0.4% Trypan blue solution) and diluted to 40,000 cells per well in 24-wells plates. […] RNA was then isolated from RAW 264.7 or CD4^+ T cells and analyzed for p38α, IL-1α, IL-1β, TNF-α, RANTES, IL-2 and IFN-γ expression with qPCR.

In test [3] the test system is RAW 264.7 cells. Description: Immunofluorescence of p38a and SMAD1/5/9 phosphorylation in RAW 264.7 cells treated with BMP7 or BMP7 plus follistatin. Format: cell-based, murine. The settings on record: 24 hours (FIG. 2K). The protocol:
Immunofluorescence analysis. RAW 264.7 cells were counted with a hemocytometer (0.4% Trypan blue solution), diluted to 200,000, and seeded in 4-well culture slides (Lab-Tek, Catalog #154917), and allowed to attach overnight. Cells were treated with 250 ng BMP7 (R&D Systems, Catalog #5666-BP-010) or follistatin (R&D Systems, Catalog #769-FS-025) and incubated for 24 h, and then fixed with 1% paraformaldehyde for 10 minutes, followed by a 10-minute wash in 70% ethanol at room temperature. Cells were then treated with 0.1% NP40 in PBS for 20 minutes, washed in PBS four times, and then blocked with 5% bovine serum albumin in PBS for 30 minutes. Cells were then incubated with p38a MAPK (L53F8) (Cell Signaling, Catalog #9228) and Phospho-Smad1 (Ser463/465), Smad5 (Ser463/465), and Smad9 (Ser465/467) (D5B10) (Cell Signaling, Catalog #13820) in 5% bovine serum albumin in PBS overnight according to the manufacturer's protocol. […] Slides were examined with a fluorescence microscope (Leica, Buffalo Grove, Ill.), and images were captured by a charge-coupled device camera and imported into the Advanced Spot Image analysis software package.

B1: follistatin: BMP7 antagonist protein, natural inhibitor of BMP7 (R&D Systems, Catalog #769-FS-025) (protein, UniProt P19883 30-344, looked up)
Follistatin: GNCWLRQAKNGRCQVLYKTELSKEECCSTGRLSTSWTEEDVNDNTLFKWMIFNGGAPNCIPCKETCENVDCGPGKKCRMNKKNKPRCVCAPDCSNITWKGPVCGLDGKTYRNECALLKARCKEQPELEVQYQGRCKKTCRDVFCPGSSTCVVDQTNNAYCVTCNRICPEPASSEQYLCGNDGVTYSSACHLRKATCLLGRSIGLAYEGKCIKAKSCEDIQCTGGKKCLWDFKVGRGRCSLCDELCPDSKSDEPVCASDNATYASECAMKEAACSSGVLLEVKHSGSCNSISEDTEEEEEDEDQDYSFPISSILEW
Take B1: the “expression of p38a and p38α-regulated cytokines and chemokines” value in the test with RAW 264.7 cells [1] and in the test on RAW 264.7 cells [2] was “higher expression” in each case. The SMAD1/5/9 activation entry in the test with CD4^+ T cells and with RAW 264.7 cells [3] (BMP7 plus follistatin versus BMP7 alone) was “lower” throughout. In addition, the p38a expression entry in the test with CD4^+ T cells and in the test with RAW 264.7 cells [3] (BMP7 plus follistatin compared with BMP7 alone) was “higher” each time.

These data come from patent publication US20220016205A1, “METHODS OF OVERCOMING RESISTANCE TO IMMUNE CHECKPOINT INHIBITORS” (Board of Regents, The University of Texas System, priority 2018, published 2022).
